The record followed here is publication PMC12060060 (Investigative Ophthalmology & Visual Science, 2025).

This data set deals with the molecule itself. Put plainly: dynamic light scattering.

B1: Q147E deamidated αA-crystallin (recombinant human) (natural protein, UniProt P02489 1-173, looked up)
chain: MDVTIQHPWFKRTLGPFYPSRLFDQFFGEGLFEYDLLPFLSSTISPYYRQSLFRTVLDSGISEVRSDRDKFVIFLDVKHFSPEDLTVKVQDDFVEIHGKHNERQDDHGYISREFHRRYRLPSNVDQSALSCSLSADGMLTFCGPKIETGLDATHAERAIPVSREEKPTSAPSS
On to B1, for which the binding result is reported as “binds”.
